The values below come from US20210340217A1, “NOVEL PEPTIDES AND COMBINATION OF PEPTIDES FOR USE IN IMMUNOTHERAPY AGAINST OVARIAN CANCER AND OTHER CANCERS” (Immatics Biotechnologies GmbH, priority 2017, published 2021).

One experiment deals with HLA-A*02:01 (Homo sapiens, UniProt P04439, D140Y/D185E/D98H/E176V/E277Q/G131W/G231S/I119V/I121R/I166T/I218V/L300P/L318F/N151K/N90K/P208A/P217A/Q86G/Q94H/R138H/R169H/T345S). Briefly: MHC binding assay (UV-ligand exchange, beta2m ELISA). Conditions: peptide exchange yield. Summed up: (§1)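 Peptide–MHC complexes formed by UV-induced exchange of a UV-cleavable peptide for the test peptide. Exchange yield measured by streptavidin-capture ELISA detecting β2m (HRP anti-β2m, TMB, A450) on 100-fold diluted samples. Quantified against refolded HLA-A*02:01/MLA-001 standards (15-500 ng/ml).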
For orientation: An ELISA detects its analyte on a solid surface through an enzyme-linked reagent.
Take “231 (SVTESTHHL; listed as Homo sapiens) [compound 231]”: the Peptide exchange entry is given as “+++ (>50 = +++)”.
In the case of “6 (SLGKHTVAL; listed as Homo sapiens) [compound 6]”, the Peptide exchange entry is “+++ (>50 = +++)”.
The same measure, in the same setting: the entry for “68 (KLFDTQQFL; listed as Homo sapiens) [compound 68]” is “++++ (>75% = ++++)”; for “60 (GLLSLTSTLYL; listed as Homo sapiens) [compound 60]” it is “++++ (>75% = ++++)”.
For the substance “242 (STIPALHEI; listed as Homo sapiens) [compound 242]”, the Peptide exchange result is on record as “+++ (>50 = +++)”.
Same read-out and setting: the entry for “69 (TTYEGSITV; listed as Homo sapiens) [compound 69]” is “++++ (>75% = ++++)”; for “66 (GLLQELSSI; listed as Homo sapiens) [compound 66]” it is “++++ (>75% = ++++)”; for “8 (YLVTKVVAV; listed as Homo sapiens) [compound 8]” it is “++++ (>75% = ++++)”.
For “241 (RQPNILVHL; listed as Homo sapiens) [compound 241]”, the Peptide exchange entry is reported as “++ (>20% = ++)”.
On to “75 (KVVSVLYNV; listed as Homo sapiens) [compound 75]”, for which the Peptide exchange entry is “++++ (>75% = ++++)”.
Still for that read-out and setting: for “221 (SLLDLYQL; listed as Homo sapiens) [compound 221]” the value was “++ (>20% = ++)”; for “7 (ALQAFEFRV; listed as Homo sapiens) [compound 7]”, “++++ (>75% = ++++)”.
Regarding “61 (YMVHIQVTL; listed as Homo sapiens) [compound 61]”, the Peptide exchange result was “++++ (>75% = ++++)”.
“5 (RLLDFINVL; listed as Homo sapiens) [compound 5]”: the Peptide exchange entry is listed as “++++ (>75% = ++++)”.
As for “219 (PLPRPGAVL; listed as Homo sapiens) [compound 219]”, the Peptide exchange entry is listed as “+ (>10% = +)”.
The same measure, in the same setting: the entry for “244 (DTDSSVHVQV; listed as Homo sapiens) [compound 244]” is “+ (>10% = +)”; for “9 (VLLAGFKPPL; listed as Homo sapiens) [compound 9]” it is “+ (>10% = +)”.
Still for that read-out and setting: for “4 (ALFKAWAL; listed as Homo sapiens) [compound 4]” the value was “++++ (>75% = ++++)”; for “220 (RMTTQLLLL; listed as Homo sapiens) [compound 220]”, “+++ (>50 = +++)”.
“73 (FLIEELLFA; listed as Homo sapiens) [compound 73]”: the Peptide exchange result is given as “++++ (>75% = ++++)”.
On to “229 (ISVPAKTSL; listed as Homo sapiens) [compound 229]”, for which the Peptide exchange entry is reported as “+ (>10% = +)”.
Still for that read-out and setting: for “62 (KVLGVNVML; listed as Homo sapiens) [compound 62]” the value was “++++ (>75% = ++++)”.
Same read-out and setting: for “217 (VSSSLTLKV; listed as Homo sapiens) [compound 217]” the value was “+ (>10% = +)”.
On to “63 (MMEEMIFNL; listed as Homo sapiens) [compound 63]”, for which the Peptide exchange result was “++++ (>75% = ++++)”.
Turning to “2 (TLLKALLEI; listed as Homo sapiens) [compound 2]”, the Peptide exchange entry is given as “++++ (>75% = ++++)”.
On to “223 (FAHHGRSL; listed as Homo sapiens) [compound 223]”, for which the Peptide exchange result is recorded as “+ (>10% = +)”.
With “236 (SAIPFSMTL; listed as Homo sapiens) [compound 236]”, the Peptide exchange entry is recorded as “+++ (>50 = +++)”.
In the case of “243 (YASEGVKQV; listed as Homo sapiens) [compound 243]”, the Peptide exchange entry is given as “+++ (>50 = +++)”.

The target in another experiment is HLA-A*03:01 (Homo sapiens, UniProt P04439). The description is as above. Conditions: peptide exchange yield. An outline of the steps: as §1
Regarding “26 (RISEYLLEK; listed as Homo sapiens) [compound 26]”, the Peptide exchange result is “++ (>20% = ++)”.
Regarding “100 (RLFTSPIMTK; listed as Homo sapiens) [compound 100]”, the Peptide exchange result is “+++ (>50 = +++)”.
“107 (RLQEWKALK; listed as Homo sapiens) [compound 107]”: the Peptide exchange entry is “+++ (>50 = +++)”.
As for “266 (ISYSGQFLVK; listed as Homo sapiens) [compound 266]”, the Peptide exchange entry is listed as “+++ (>50 = +++)”.
Regarding “102 (SVLTSSLVK; listed as Homo sapiens) [compound 102]”, the Peptide exchange entry was “++ (>20% = ++)”.
Regarding “21 (AVRKPIVLK; listed as Homo sapiens) [compound 21]”, the Peptide exchange entry is “+++ (>50 = +++)”.
Take “277 (TTALKTTSR; listed as Homo sapiens) [compound 277]”: the Peptide exchange entry is “+ (>10% = +)”.
On to “258 (GAYAHTVNR; listed as Homo sapiens) [compound 258]”, for which the Peptide exchange result is listed as “+++ (>50 = +++)”.
In the case of “281 (RAKELEATF; listed as Homo sapiens) [compound 281]”, the Peptide exchange entry was “+ (>10% = +)”.
Same read-out and setting: for “98 (LLQPPPLLAR; listed as Homo sapiens) [compound 98]” the value was “++ (>20% = ++)”.
In the case of “273 (RVNAIPFTY; listed as Homo sapiens) [compound 273]”, the Peptide exchange result is “+++ (>50 = +++)”.
For “283 (IVQEPTEEK; listed as Homo sapiens) [compound 283]”, the Peptide exchange result is given as “++ (>20% = ++)”.
The same measure, in the same setting: for “94 (ATFERVLLR; listed as Homo sapiens) [compound 94]” the value was “+++ (>50 = +++)”.
With “279 (SVSSETTKIKR; listed as Homo sapiens) [compound 279]”, the Peptide exchange entry is reported as “++ (>20% = ++)”.
Turning to “89 (RVAELLLLH; listed as Homo sapiens) [compound 89]”, the Peptide exchange entry is recorded as “++ (>20% = ++)”.
On the same count and under the same terms, the entry for “271 (RMFADDLHNLNK; listed as Homo sapiens) [compound 271]” is “+++ (>50 = +++)”; for “27 (VLYGPAGLGK; listed as Homo sapiens) [compound 27]” it is “+++ (>50 = +++)”; for “25 (GTSPPSVEK; listed as Homo sapiens) [compound 25]” it is “++ (>20% = ++)”.
For the substance “259 (KTLELRVAY; listed as Homo sapiens) [compound 259]”, the Peptide exchange entry is on record as “++ (>20% = ++)”.
For the substance “95 (QSMYYPLQLK; listed as Homo sapiens) [compound 95]”, the Peptide exchange result is “++ (>20% = ++)”.
Take “267 (VTDLISPRK; listed as Homo sapiens) [compound 267]”: the Peptide exchange result is “++ (>20% = ++)”.
As to “84 (KLQPAQTAAK; listed as Homo sapiens) [compound 84]”, the Peptide exchange entry was “++ (>20% = ++)”.
As to “285 (GTVNPTVGK; listed as Homo sapiens) [compound 285]”, the Peptide exchange entry was “++ (>20% = ++)”.
With “83 (GTYAHTVNR; listed as Homo sapiens) [compound 83]”, the Peptide exchange result is “+++ (>50 = +++)”.
Consider “22 (SLKERNPLK; listed as Homo sapiens) [compound 22]”, for which the Peptide exchange result is “++ (>20% = ++)”.
On to “87 (AVAPPTPASK; listed as Homo sapiens) [compound 87]”, for which the Peptide exchange result is reported as “++ (>20% = ++)”.
With “85 (VLLGSLFSRK; listed as Homo sapiens) [compound 85]”, the Peptide exchange entry was “++ (>20% = ++)”.
For the substance “104 (VLADSVTTK; listed as Homo sapiens) [compound 104]”, the Peptide exchange entry is listed as “++ (>20% = ++)”.
On the same count and under the same terms, for “276 (VSKTTGMEF; listed as Homo sapiens) [compound 276]” the value was “+ (>10% = +)”.
Take “106 (AAFVPLLLK; listed as Homo sapiens) [compound 106]”: the Peptide exchange entry was “++ (>20% = ++)”.
Turning to “256 (RTEEVLLTFK; listed as Homo sapiens) [compound 256]”, the Peptide exchange entry is on record as “++ (>20% = ++)”.
As for “23 (GMMKGGIRK; listed as Homo sapiens) [compound 23]”, the Peptide exchange result is “+++ (>50 = +++)”.
Take “99 (KVVDRWNEK; listed as Homo sapiens) [compound 99]”: the Peptide exchange result is given as “++ (>20% = ++)”.
As to “262 (RSRLNPLVQR; listed as Homo sapiens) [compound 262]”, the Peptide exchange result is listed as “++ (>20% = ++)”.
As for “28 (KTYETNLEIKK; listed as Homo sapiens) [compound 28]”, the Peptide exchange result is “+++ (>50 = +++)”.
Regarding “90 (KVAGERYVYK; listed as Homo sapiens) [compound 90]”, the Peptide exchange entry is listed as “+++ (>50 = +++)”.
Turning to “287 (RRIHTGEKPYK; listed as Homo sapiens) [compound 287]”, the Peptide exchange entry is “++ (>20% = ++)”.
Same read-out and setting: the entry for “284 (KSLIKSWKK; listed as Homo sapiens) [compound 284]” is “++ (>20% = ++)”; for “264 (AIKVIPTVFK; listed as Homo sapiens) [compound 264]” it is “++ (>20% = ++)”; for “280 (SVSGVKTTF; listed as Homo sapiens) [compound 280]” it is “++ (>20% = ++)”.
Same read-out and setting: the entry for “269 (RLKGDAWVYK; listed as Homo sapiens) [compound 269]” is “+++ (>50 = +++)”; for “260 (GTNTVILEY; listed as Homo sapiens) [compound 260]” it is “+++ (>50 = +++)”; for “20 (RMASPVNVK; listed as Homo sapiens) [compound 20]” it is “++++ (>75% = ++++)”.
Consider “278 (NLSSITHER; listed as Homo sapiens) [compound 278]”, for which the Peptide exchange entry is given as “++ (>20% = ++)”.
